Measurements taken from paper PMC3713010, “Sox2 Transcriptionally Regulates Pqbp1, an Intellectual Disability-Microcephaly Causative Gene, in Neural Stem Progenitor Cells”.

B1: Sox2-Brn2 consensus probe (dsDNA)
DNA 1: GGGTAGTGTGGACAAAAGGCAATAATTAGCATGAGAATC
DNA 2: GATTCTCATGCTAATTATTGCCTTTTGTCCACACTACCC
B2: Sox2-Pax6 consensus probe (dsDNA)
DNA 1: GGGAAATATTCATTGTTGTTGCTCACCTACCATGGA
DNA 2: TCCATGGTAGGTGAGCAACAACAATGAATATTTCCC

Tests used:
Sox2;Brn2 = Sox2;Brn2 (Mus musculus (B6);Mus musculus (B6), UniProt P48432;P31360 1-319;1-445, |); assay: EMSA; supershift with anti-Brn2; EMSA: 20 ng GST-fusion protein, 20 mM HEPES pH 7.8, 45 mM KCl, 10 mM NaCl, 1 mM EDTA, 1 mM DTT, 10% glycerol, 0.2 ug/uL BSA, 0.1% NP-40, 50 ng poly-dIdC; RT 30; conditions: protein: recombinant;recombinant; tags: GST (N-terminal, pGEX-6P-1);GST (N-terminal, pGEX-6P-1); copies: 1;1; label: 32P
Sox2;Brn2, sequence (P48432 whole entry, chain 1 of 2, the tested form may be a part): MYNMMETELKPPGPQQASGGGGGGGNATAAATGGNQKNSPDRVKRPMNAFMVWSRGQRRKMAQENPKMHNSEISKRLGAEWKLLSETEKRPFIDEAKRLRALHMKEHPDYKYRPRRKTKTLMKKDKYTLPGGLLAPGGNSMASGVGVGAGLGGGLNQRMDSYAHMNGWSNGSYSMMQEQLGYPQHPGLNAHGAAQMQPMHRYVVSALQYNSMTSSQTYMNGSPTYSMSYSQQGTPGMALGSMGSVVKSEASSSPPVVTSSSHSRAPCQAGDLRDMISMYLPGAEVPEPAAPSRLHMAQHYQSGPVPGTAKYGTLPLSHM
Sox2;Brn2, sequence (P31360 whole entry, chain 2 of 2, the tested form may be a part): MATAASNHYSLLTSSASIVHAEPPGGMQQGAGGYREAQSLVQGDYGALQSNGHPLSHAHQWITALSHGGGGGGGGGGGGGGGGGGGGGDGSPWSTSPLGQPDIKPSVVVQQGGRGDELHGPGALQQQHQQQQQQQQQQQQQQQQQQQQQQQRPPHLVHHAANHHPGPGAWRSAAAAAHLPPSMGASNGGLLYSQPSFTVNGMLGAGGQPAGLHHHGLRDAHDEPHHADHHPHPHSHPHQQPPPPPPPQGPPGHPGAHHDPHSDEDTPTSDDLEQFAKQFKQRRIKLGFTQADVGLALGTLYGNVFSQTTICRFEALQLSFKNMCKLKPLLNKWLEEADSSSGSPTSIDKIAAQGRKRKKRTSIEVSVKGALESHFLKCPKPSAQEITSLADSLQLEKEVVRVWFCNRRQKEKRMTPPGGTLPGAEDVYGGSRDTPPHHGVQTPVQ

Sox2;Pax6 = Sox2;Pax6 (Mus musculus (B6);Mus musculus (B6), UniProt P48432;P63015 1-319;1-422, |); assay: EMSA; supershift with anti-Pax6; EMSA: 20 ng GST-fusion protein, 20 mM HEPES pH 7.8, 45 mM KCl, 10 mM NaCl, 1 mM EDTA, 1 mM DTT, 10% glycerol, 0.2 ug/uL BSA, 0.1% NP-40, 50 ng poly-dIdC; RT 30; conditions: protein: recombinant;recombinant; tags: GST (N-terminal, pGEX-6P-1);GST (N-terminal, pGEX-6P-1); copies: 1;1; label: 32P
Sox2;Pax6, sequence (P48432 whole entry, chain 1 of 2, the tested form may be a part): as the sequence (P48432 whole entry, chain 1 of 2, the tested form may be a part) above
Sox2;Pax6, sequence (P63015 whole entry, chain 2 of 2, the tested form may be a part): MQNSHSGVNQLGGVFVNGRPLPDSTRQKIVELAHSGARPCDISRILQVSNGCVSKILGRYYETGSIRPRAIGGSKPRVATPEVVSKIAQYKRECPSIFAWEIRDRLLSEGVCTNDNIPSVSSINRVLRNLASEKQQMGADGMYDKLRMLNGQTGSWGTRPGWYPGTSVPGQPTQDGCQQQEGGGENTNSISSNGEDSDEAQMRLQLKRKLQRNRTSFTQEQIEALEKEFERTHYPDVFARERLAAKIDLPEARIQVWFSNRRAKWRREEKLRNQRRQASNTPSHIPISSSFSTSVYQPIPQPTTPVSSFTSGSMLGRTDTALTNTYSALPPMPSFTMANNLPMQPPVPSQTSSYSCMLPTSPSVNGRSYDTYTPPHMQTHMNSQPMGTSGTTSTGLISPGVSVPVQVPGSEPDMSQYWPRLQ

Row | Binder | binding result (Sox2;Brn2) | binding result (Sox2;Pax6)
1 | B1 | binds | 
2 | B2 |  | binds
